# Test results published in PMC10164574, “Fission yeast Swi2 designates cell-type specific donor and stimulates Rad51-driven strand exchange for mating-type switching”.
# T1: Swi2N (Schizosaccharomyces pombe, UniProt Q10668 1-391)
# T1 sequence: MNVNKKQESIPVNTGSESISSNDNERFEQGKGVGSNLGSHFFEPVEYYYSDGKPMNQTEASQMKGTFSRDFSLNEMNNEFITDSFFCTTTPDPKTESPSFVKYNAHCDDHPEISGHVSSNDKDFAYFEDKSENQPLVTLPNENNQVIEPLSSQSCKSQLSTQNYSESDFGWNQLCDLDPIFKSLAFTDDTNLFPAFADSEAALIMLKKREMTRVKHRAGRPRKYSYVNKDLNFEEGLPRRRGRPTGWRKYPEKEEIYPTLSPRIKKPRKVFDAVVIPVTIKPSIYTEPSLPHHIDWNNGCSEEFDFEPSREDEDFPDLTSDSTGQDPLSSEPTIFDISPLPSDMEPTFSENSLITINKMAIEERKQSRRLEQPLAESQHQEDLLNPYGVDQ
# B1: FAM-H1 (59 nt) (ssDNA)
# DNA: CATGGAAACGAACGAGAGAAAACAAAGGAGAAAGACTATACATTTATATTACAAAAAAA
# Target: T1, Swi2N
# Test: EMSA; 20 mM Tris-HCl pH 7.5, 100 mM NaCl, 5% glycerol, 1 mM DTT, room temperature 10 min; 1% agarose in TAE
# Conditions: protein: recombinant; tags: His-SUMO removed by Ulp1; label: 5' FAM; single strand
binder,measurement,value
B1,binding result,no binding
